The results in this text go back to publication doi:10.1101/2022.08.17.504347 (bioRxiv, 2022).

Data set [1] concerns the target chicken CENP-C^677-864 (C-terminus of chicken CENP-C including the Cupin domain) (chicken). Briefly: crystal structure.
Data set [2] deals with the molecule itself. The data set is described as follows: native gel or EMSA.

The molecule “chicken CENP-C^677-864 (C-terminus of chicken CENP-C including the Cupin domain) (domain or fragment)” showed a stoichiometry N in data set [1] of 2.

B1: human CENP-C fragment hCENP-C^760-943 (C-terminus of hCENP-C, wild type) (domain or fragment, UniProt Q03188-1 760-943, looked up)
chain: GRPSGGFVISGVLSPDTISSKRKAKENIGKVNKKSNKKRICLDNDERKTNLMVNLGIPLGDPLQPTRVKDPETREIILMDLVRPQDTYQFFVKHGELKVYKTLDTPFFSTGKLILGPQEEKGKQHVGQDILVFYVNFGDLLCTLHETPYILSTGDSFYVPSGNYYNIKNLRNEESVLLFTQIKR
In the case of B1, the binding result in data set [2] is listed as “binds”.

The term stoichiometry N denotes the number of molecules, sites or subunits per partner or assembly.
